From article PMC3156716

Molecular target: T1, His6-PhoP (Pseudomonas aeruginosa PAO1?) (UniProt Q9I4F9)
T1 sequence: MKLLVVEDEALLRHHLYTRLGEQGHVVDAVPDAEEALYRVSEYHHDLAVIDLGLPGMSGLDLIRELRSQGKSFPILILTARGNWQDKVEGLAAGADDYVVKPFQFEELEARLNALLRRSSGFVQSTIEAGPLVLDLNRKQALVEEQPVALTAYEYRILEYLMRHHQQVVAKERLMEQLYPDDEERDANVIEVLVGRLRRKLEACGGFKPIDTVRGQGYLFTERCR
Assay: EMSA
Conditions: DIG Gel Shift Kit 2nd Generation (Roche) per manufacturer; 6% native polyacrylamide gel; buffer, salt, pH and temperature not stated

Row | Sequence | binding
1 | GAGGATCCCAGGAGTGATATTAGCGATTCCCAGTGCTCCCGCAACCTGCCAGAAAACCCAGCGAAGCTTCTTCGGCAGCCATTTTAGAAAAATATATTCCTTTAATTTCAATAAGTTACTTAAATTCACCGAGCGTTTTTGGCAAACCTCCCGGGCATTTATCTACTTAGGCTCACACGCCGTGTAAGTTAATGCTTACAAGAGCAGACACAAAAAACCCGGCGGATCCTC (double strand) [rsmZ promoter, full length] | binds
2 | GAGGATCCGTGAATGGCCGGATTATAGCCAAGTGGCCGTGGCAACGGCATAGGCCGCGGAAGCGCCGTGCGGCGCCCGCGGCTTCGGGCCCGGTCAGGACTCGCCGCGCTCGCGGGCGATGGCACGGTAGCCGATGTCCTTGCGGTAGAAGCAGCCGTTCCAGCGGATCTTCTCGGCCAGGCGATAGGCCTGTTGCTGGGCGGCGGACACGCTCTCGCCGATGGCGGTGGCACAGAGCACGCGGCCGCCTCGAGTC (double strand) [truncated retS promoter, 255 bp, lacking PhoP box] | no binding
